Assay results as given in patent US20190112340A1.

Experiments:
[1] = biological target: bRSV F 391-2 post-F (bovine RSV, strain 391-2) (UniProt P22167); assay: Fab binding to purified bRSV F trimer (Octet BLI as in Example 1)
[2] = biological target: bRSV F 391-2 DS-Cav1 (bovine RSV, strain 391-2) (UniProt P22167); assay: as above
[3] = biological target: bRSV F 391-2 post-F (bovine RSV, strain 391-2) (UniProt P22167); assay: Motavizumab binding to stressed post-F protein as a fraction of the untreated protein (physical stability)
[4] = biological target: RSV F sc9-41 DS-Cav1 (human RSV subtype A (strain A2)) (UniProt P03420); assay: BLI (Octet), F on Ni-NTA tips, Fab in solution
[5] = biological target: sc9-10 DS-Cav1 N183GC,N428C; assay: BLI (Octet), F on Ni-NTA tips, Fab in solution
[6] = biological target: RSV F sc9 DS-Cav1 (human RSV subtype A (strain A2)); assay: BLI (Octet), F on Ni-NTA tips, Fab in solution
[7] = biological target: sc9-10 DS-Cav1 A149C, Y458C S46G-N67I-E92D-S215P-K465Q (A2); assay: BLI (Octet), F on Ni-NTA tips, Fab in solution
[8] = biological target: sc9-24 DS-Cav1; assay: BLI (Octet), F on Ni-NTA tips, Fab in solution
[9] = biological target: sc9-10 DS-Cav1 A149C, Y458C S46G-S215P-K465Q (A2); assay: BLI (Octet), F on Ni-NTA tips, Fab in solution
[10] = biological target: sc9-10 DS-Cav1 Q98C, Q361C S46G-E92D-L95M-S215P-I217P-I221M-R429K-K465Q (Long (VR26)); assay: BLI (Octet), F on Ni-NTA tips, Fab in solution
[11] = biological target: RSV F sc9-9 DS-Cav1 (human RSV subtype A (strain A2)) (UniProt P03420); assay: BLI (Octet), F on Ni-NTA tips, Fab in solution
[12] = biological target: sc8 DS-Cav1; assay: BLI (Octet), F on Ni-NTA tips, Fab in solution
[13] = biological target: RSV F DS-Cav1 (human RSV subtype A (strain A2)) (UniProt P03420); assay: BLI (Octet), F on Ni-NTA tips, Fab in solution
[14] = biological target: sc11 DS-Cav1; assay: BLI (Octet), F on Ni-NTA tips, Fab in solution
[15] = biological target: sc9-10 A DS-Cav1 A149C, Y458C; assay: BLI (Octet), F on Ni-NTA tips, Fab in solution
[16] = biological target: sc9-10 DS-Cav1 Q98C, Q361C L95M-I221M-R429K (B18537); assay: BLI (Octet), F on Ni-NTA tips, Fab in solution
[17] = biological target: sc4 DS-Cav1; assay: BLI (Octet), F on Ni-NTA tips, Fab in solution
[18] = biological target: RSV F sc9-10 DS-Cav1 (human RSV subtype A (strain A2)); assay: BLI (Octet), F on Ni-NTA tips, Fab in solution
[19] = biological target: sc9-19 DS-Cav1; assay: BLI (Octet), F on Ni-NTA tips, Fab in solution
[20] = biological target: sc10 DS-Cav1; assay: BLI (Octet), F on Ni-NTA tips, Fab in solution
[21] = biological target: RSV F sc9-42 DS-Cav1 (human RSV subtype A (strain A2)) (UniProt P03420); assay: BLI (Octet), F on Ni-NTA tips, Fab in solution
[22] = biological target: sc9-10 DS-Cav1 A149C, Y458C S46G-E92D-S215P-K465Q (A2); assay: BLI (Octet), F on Ni-NTA tips, Fab in solution
[23] = biological target: sc9-10 DS-Cav1 N183GC, N428C S46G-N67I-E92D-S215P-K465Q (A2); assay: BLI (Octet), F on Ni-NTA tips, Fab in solution
[24] = biological target: sc9 DS-Cav1-105Q; assay: BLI (Octet), F on Ni-NTA tips, Fab in solution

Substance: Motavizumab Fab
- Kd [1]: 0.6 nM
- Kd [2]: 0.8 nM
- fractional antibody reactivity after 10 cycles of freeze-thaw [3]: 1
- fractional antibody reactivity after 50 °C [3]: 1
- fractional antibody reactivity after 70 °C [3]: 1
- fractional antibody reactivity after osmolarity 10 mM [3]: 0.9
- fractional antibody reactivity after osmolarity 3000 mM [3]: 0.6
- fractional antibody reactivity after pH 3.5 [3]: 0.8
- fractional antibody reactivity after pH 10.0 [3]: 1.1
- Kd [4]: 0.04 nM
- Kd [5]: 0.3 nM
- Kd [6]: 13.7 nM
- Kd [7]: 0.1 nM
- Kd [8]: 15.1 nM
- Kd [9]: 0.4 nM
- Kd [10]: 11.1 nM
- Kd [11]: 1 nM
- Kd [12]: < 0.01 nM
- Kd [13]: 0.04 nM
- Kd [14]: 29.3 nM
- Kd [15]: 0.4 nM
- Kd [16]: 0.2 nM
- Kd [17]: 7.6 nM
- Kd [18]: 9.7 nM
- Kd [19]: 16.7 nM
- Kd [20]: 22.4 nM
- Kd [21]: 5.9 nM
- Kd [22]: 0.6 nM
- Kd [23]: 0.6 nM
- Kd [24]: 16.3 nM
